B1: Origin recognition complex subunit 1 (Homo sapiens), Q13415 (parent)
chain: MAHYPTRLKTRKTYSWVGRPLLDRKLHYQTYREMCVKTEGCSTEIHIQIGQFVLIEGDDDENPYVAKLLELFEDDSDPPPKKRARVQWFVRFCEVPACKRHLLGRKPGAQEIFWYDYPACDSNINAETIIGLVRVIPLAPKDVVPTNLKNEKTLFVKLSWNEKKFRPLSSELFAELNKPQESAAKCQKPVRAKSKSAESPSWTPAEHVAKRIESRHSASKSRQTPTHPLTPRARKRLELGNLGNPQMSQQTSCASLDSPGRIKRKVAFSEITSPSKRSQPDKLQTLSPALKAPEKTRETGLSYTEDDKKASPEHRIILRTRIAASKTIDIREERTLTPISGGQRSSVVPSVILKPENIKKRDAKEAKAQNEATSTPHRIRRKSSVLTMNRIRQQLRFLGNSKSDQEEKEILPAAEISDSSSDEEEASTPPLPRRAPRTVSRNLRSSLKSSLHTLTKVPKKSLKPRTPRCAAPQIRSRSLAAQEPASVLEEARLRLHVSAVPESLPCREQEFQDIYNFVESKLLDHTGGCMYISGVPGTGKTATVHEVIRCLQQAAQANDVPPFQYIEVNGMKLTEPHQVYVQILQKLTGQKATANHAAELLAKQFCTRGSPQETTVLLVDELDLLWTHKQDIMYNLFDWPTHKEARLVVLAIANTMDLPERIMMNRVSSRLGLTRMCFQPYTYSQLQQILRSRLKHLKAFEDDAIQLVARKVAALSGDARRCLDICRRATEICEFSQQKPDSPGLVTIAHSMEAVDEMFSSSYITAIKNSSVLEQSFLRAILAEFRRSGLEEATFQQIYSQHVALCRMEGLPYPTMSETMAVCSHLGSCRLLLVEPSRNDLLLRVRLNVSQDDVLYALKDE

Variants of: B1
Conditions: with h4_bovin h4, P62803

Effect of a mutation on the interaction, disrupting interaction strength:
E94A
Y64A
W88A

Reference: IntAct's records for PubMed 22398447
